Source: US9176064B2, “Bisubstrate fluorescent probes for protein kinase CK2” (University of Tartu, priority 2012, dated 2015)
Where a SMILES comes first, the peptide text is derived from it. [ ]: non-standard residue; d: D form. The star is where a group is joined. X1 = O=C(CCCCCCCn1cnc2c(Br)c(Br)c(Br)c(Br)c21)*

How the values were obtained:
Experiment in all cases: Kinase panel residual activity
Type in all cases: biochemical
Details in all cases: compound at 1 micromolar
EPH-B1 = biological target: T1, EPH-B1 (Homo sapiens, UniProt P54762)
T1 sequence (P54762 18-984): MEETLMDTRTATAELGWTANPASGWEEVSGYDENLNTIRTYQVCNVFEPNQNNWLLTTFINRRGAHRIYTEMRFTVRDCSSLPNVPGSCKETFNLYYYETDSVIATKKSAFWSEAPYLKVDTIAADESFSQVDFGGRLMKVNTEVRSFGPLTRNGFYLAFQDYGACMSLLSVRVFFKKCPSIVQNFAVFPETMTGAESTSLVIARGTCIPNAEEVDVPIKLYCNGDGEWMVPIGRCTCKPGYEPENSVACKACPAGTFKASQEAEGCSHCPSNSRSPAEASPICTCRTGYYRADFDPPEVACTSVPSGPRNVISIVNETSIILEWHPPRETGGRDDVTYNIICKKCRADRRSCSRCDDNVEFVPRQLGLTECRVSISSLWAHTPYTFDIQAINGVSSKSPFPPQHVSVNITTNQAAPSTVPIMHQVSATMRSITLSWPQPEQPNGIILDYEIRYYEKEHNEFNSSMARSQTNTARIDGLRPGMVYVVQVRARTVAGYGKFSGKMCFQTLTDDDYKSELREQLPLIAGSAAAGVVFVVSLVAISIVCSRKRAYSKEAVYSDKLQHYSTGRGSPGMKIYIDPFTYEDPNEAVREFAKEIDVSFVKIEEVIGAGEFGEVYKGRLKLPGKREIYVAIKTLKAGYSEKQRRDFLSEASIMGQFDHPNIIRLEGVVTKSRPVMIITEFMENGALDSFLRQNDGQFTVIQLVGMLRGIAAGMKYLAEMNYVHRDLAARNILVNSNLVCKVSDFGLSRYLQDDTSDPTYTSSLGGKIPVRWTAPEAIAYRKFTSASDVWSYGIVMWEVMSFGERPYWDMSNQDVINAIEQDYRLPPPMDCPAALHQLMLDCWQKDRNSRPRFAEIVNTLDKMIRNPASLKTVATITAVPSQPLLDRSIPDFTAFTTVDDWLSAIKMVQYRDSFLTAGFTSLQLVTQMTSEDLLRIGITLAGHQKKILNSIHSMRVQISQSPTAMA

MSK1 = MSK1 (Homo sapiens, UniProt O75582)
MSK1, sequence (O75582 whole entry, species assumed): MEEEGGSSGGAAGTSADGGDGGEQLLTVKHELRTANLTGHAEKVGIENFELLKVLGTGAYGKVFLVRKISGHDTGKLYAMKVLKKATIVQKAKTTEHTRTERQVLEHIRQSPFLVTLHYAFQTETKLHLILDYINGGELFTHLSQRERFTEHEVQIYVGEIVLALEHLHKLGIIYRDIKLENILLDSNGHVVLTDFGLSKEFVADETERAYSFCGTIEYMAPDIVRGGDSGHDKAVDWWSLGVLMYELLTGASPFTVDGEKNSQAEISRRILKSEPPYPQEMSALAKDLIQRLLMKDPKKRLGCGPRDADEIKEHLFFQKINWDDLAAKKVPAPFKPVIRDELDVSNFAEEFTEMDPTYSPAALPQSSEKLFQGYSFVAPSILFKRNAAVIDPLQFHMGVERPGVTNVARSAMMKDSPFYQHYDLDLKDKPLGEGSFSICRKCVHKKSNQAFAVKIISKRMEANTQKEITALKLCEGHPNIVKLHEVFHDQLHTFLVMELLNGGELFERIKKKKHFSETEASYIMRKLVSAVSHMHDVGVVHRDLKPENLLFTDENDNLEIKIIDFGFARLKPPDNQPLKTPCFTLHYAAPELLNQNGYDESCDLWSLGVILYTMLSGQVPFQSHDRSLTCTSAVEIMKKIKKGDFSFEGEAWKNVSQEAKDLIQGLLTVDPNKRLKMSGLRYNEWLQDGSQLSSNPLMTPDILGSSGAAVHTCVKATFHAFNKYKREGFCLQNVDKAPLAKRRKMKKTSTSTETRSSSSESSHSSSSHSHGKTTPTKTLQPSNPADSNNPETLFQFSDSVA

TIE2 = TIE2 (Homo sapiens, UniProt Q02763)
TIE2, sequence (Q02763 23-1124, species assumed): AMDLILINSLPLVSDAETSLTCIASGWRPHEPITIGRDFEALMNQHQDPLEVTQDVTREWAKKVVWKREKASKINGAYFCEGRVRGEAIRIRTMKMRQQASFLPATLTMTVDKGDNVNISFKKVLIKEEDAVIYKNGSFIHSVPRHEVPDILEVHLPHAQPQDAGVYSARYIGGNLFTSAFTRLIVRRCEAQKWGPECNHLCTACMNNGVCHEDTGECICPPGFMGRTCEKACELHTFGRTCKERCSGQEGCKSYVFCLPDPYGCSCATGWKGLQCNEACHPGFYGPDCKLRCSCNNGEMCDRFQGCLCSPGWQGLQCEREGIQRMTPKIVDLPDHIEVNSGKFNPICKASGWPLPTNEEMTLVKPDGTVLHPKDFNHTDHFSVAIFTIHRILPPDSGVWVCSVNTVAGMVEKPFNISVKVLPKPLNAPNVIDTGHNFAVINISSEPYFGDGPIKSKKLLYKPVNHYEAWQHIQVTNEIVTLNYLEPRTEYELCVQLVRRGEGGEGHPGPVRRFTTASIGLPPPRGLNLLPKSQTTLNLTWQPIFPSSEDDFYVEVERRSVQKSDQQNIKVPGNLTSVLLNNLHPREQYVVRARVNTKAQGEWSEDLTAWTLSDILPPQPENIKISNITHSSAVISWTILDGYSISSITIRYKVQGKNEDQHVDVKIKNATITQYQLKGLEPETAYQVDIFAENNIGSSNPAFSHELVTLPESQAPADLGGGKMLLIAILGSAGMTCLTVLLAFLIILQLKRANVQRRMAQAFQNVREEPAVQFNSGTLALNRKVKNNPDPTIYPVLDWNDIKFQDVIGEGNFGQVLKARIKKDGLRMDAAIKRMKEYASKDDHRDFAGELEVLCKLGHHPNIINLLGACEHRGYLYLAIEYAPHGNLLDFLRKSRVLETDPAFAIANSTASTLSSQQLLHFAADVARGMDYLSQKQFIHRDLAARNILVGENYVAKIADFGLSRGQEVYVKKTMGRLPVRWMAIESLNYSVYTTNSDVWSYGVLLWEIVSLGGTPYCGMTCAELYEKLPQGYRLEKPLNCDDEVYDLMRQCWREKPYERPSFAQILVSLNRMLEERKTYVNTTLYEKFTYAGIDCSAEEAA

DDR2 = biological target: T2, DDR2 (Homo sapiens, UniProt Q16832)
T2 sequence (Q16832 22-855): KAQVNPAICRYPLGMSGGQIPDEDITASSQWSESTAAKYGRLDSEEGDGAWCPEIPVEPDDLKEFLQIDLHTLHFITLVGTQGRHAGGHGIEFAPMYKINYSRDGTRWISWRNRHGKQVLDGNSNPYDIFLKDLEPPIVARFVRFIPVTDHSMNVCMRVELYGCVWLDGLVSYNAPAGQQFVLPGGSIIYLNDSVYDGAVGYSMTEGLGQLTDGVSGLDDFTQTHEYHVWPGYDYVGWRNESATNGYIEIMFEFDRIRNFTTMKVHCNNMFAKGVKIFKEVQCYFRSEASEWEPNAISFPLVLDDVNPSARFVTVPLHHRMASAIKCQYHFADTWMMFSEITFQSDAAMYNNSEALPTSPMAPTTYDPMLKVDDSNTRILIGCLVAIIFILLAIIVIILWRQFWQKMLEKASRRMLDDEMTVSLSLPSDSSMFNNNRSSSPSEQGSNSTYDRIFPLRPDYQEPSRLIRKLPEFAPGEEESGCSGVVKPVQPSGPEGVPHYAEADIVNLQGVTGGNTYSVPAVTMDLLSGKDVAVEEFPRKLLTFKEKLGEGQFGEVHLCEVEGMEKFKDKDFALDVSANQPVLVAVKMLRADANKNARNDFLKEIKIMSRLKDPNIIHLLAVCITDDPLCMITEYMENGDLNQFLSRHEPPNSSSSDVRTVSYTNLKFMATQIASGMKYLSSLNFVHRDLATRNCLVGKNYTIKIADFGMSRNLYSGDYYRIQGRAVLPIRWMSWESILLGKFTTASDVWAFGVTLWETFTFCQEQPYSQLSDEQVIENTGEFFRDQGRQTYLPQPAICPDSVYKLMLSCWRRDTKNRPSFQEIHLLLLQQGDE

SGK1 = biological target: T3, SGK1 (Homo sapiens, UniProt O00141)
T3 sequence (O00141 1-431): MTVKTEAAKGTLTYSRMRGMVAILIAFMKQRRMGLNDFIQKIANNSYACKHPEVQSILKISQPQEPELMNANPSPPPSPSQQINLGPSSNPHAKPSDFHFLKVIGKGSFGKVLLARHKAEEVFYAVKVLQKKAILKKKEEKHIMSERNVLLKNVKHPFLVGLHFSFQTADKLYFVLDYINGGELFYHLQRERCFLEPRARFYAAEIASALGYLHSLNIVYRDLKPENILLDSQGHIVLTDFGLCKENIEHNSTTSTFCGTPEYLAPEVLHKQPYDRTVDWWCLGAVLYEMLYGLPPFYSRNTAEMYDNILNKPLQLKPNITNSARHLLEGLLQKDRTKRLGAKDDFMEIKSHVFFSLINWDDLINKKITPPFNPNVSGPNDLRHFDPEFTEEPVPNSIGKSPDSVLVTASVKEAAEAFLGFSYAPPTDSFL

NCCCC[C@H](NC(=O)[C@H](CC(=O)O)NC(=O)[C@H](CC(=O)O)NC(=O)[C@H](CC(=O)O)NC(=O)[C@H](CC(=O)O)NC(=O)[C@H](CC(=O)O)NC(=O)[C@@H](CC(=O)O)NC(=O)CCCCCCCn1cnc2c(Br)c(Br)c(Br)c(Br)c21)C(=O)O [TBBI-OcA-(D-Asp)-(L-Asp)5-(L-Lys)-OH] (X1-[dD]DDDDDK-OH)
remaining activity at 1 µM (EPH-B1): 102% | remaining activity at 1 µM (MSK1): 102% | remaining activity at 1 µM (TIE2): 105% | remaining activity at 1 µM (DDR2): 109% | remaining activity at 1 µM (SGK1): 127%
